# In patent US20090175863A1 (BIOTEST, published 2009):
# Where “and” joins values, the source holds several entries; their conditions need not be identical. Identical values can stand only once.
# T1: CD138 expressed on the cell surface (OPM-2 cells, MOLP-8 cells) (human, UniProt P18827 23-310)
# T1 construct: whole, on cells; also called syndecan-1; CD138+ OPM-2
# T1 sequence (looked up): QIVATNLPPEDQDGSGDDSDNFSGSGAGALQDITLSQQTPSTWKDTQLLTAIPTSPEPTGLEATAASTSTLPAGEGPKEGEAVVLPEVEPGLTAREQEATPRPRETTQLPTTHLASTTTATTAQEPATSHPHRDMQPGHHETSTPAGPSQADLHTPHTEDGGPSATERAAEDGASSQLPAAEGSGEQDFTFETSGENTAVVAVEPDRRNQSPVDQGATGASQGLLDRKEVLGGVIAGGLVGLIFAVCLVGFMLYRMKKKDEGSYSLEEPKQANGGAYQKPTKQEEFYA
# T2: Soluble CD138 antigen purified from U-266 cell culture supernatant, biotinylated (human, UniProt P18827 23-245, limits assumed, biotinylated with Sulfo-NHS-LC-Biotin on primary amino groups (lysine residues); positions not stated)
# T2 construct: Natural soluble (shed) CD138 captured on a streptavidin sensor chip; also called bCD138; biotinylated CD138
# T2 sequence (looked up): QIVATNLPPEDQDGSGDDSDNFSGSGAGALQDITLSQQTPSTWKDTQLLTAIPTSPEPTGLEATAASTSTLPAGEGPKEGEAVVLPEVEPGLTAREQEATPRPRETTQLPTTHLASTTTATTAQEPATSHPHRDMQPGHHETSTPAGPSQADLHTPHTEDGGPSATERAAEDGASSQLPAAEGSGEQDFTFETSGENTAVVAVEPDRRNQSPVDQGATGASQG
# Columns and labels:
# [1] = biological target: T1, CD138 expressed on the cell surface …; test: FACS on CD138+ OPM-2 cells, fluorescence-labeled secondary antibody, mean fluorescence against concentration
# From the text: The mean fluorescence measured in these experiments was plotted against the antibody concentration.
# In FIG. 6, the mean fluorescences as measure for the amount of cell bound antibody is plotted against different antibody or conjugate concentrations.
# [2] = biological target: T2, Soluble CD138 antigen purified from …; test: SPR (BIACORE C), biotinylated CD138 on SA chip, conjugate as analyte; mean of three experiments, +/- SD
# [3] = biological target: T2, Soluble CD138 antigen purified from …; test: SPR (BIACORE C), biotinylated CD138 on SA chip, conjugate as analyte; single experiment
Binder,EC50 (read off the curve) [1] [nM],Kd [2] [nM],Kd [3]
"nBT062-SPP-DM1 (antibody, V domains shown) VH: QVQLQQSGSELMMPGASVKISCKATGYTFSNYWIEWVKQRPGHGLEWIGEILPGTGRTIYNEKFKGKATFTADISSNTVQMQLSSLTSEDSAVYYCARRDYYGNFYYAMDYWGQGTSVTVSS VL: DIQMTQSTSSLSASLGDRVTISCSASQGINNYLNWYQQKPDGTVELLIYYTSTLQSGVPSRFSGSGSGTDYSLTISNLEPEDIGTYYCQQYSKLPRTFGGGTKLEIKR",~1,–,–
"nBT062-SMCC-DM1 (antibody, V domains shown) VH: QVQLQQSGSELMMPGASVKISCKATGYTFSNYWIEWVKQRPGHGLEWIGEILPGTGRTIYNEKFKGKATFTADISSNTVQMQLSSLTSEDSAVYYCARRDYYGNFYYAMDYWGQGTSVTVSS VL: DIQMTQSTSSLSASLGDRVTISCSASQGINNYLNWYQQKPDGTVELLIYYTSTLQSGVPSRFSGSGSGTDYSLTISNLEPEDIGTYYCQQYSKLPRTFGGGTKLEIKR",~1,–,–
"nBT062 (antibody, human IgG4, kappa, V domains shown, also called cB-B4; chimeric B-B4) VH: QVQLQQSGSELMMPGASVKISCKATGYTFSNYWIEWVKQRPGHGLEWIGEILPGTGRTIYNEKFKGKATFTADISSNTVQMQLSSLTSEDSAVYYCARRDYYGNFYYAMDYWGQGTSVTVSS VL: DIQMTQSTSSLSASLGDRVTISCSASQGINNYLNWYQQKPDGTVELLIYYTSTLQSGVPSRFSGSGSGTDYSLTISNLEPEDIGTYYCQQYSKLPRTFGGGTKLEIKR",~1,–,–
"B-B4-SPP-DM1 (antibody, V domains shown) VH: QVQLQQSGSELMMPGASVKISCKATGYTFSNYWIEWVKQRPGHGLEWIGEILPGTGRTIYNEKFKGKATFTADISSNTVQMQLSSLTSEDSAVYYCARRDYYGNFYYAMDYWGQGTSVTVSS VL: DIQMTQSTSSLSASLGDRVTISCSASQGINNYLNWYQQKPDGTVELLIYYTSTLQSGVPSRFSGSGSGTDYSLTISNLEPEDIGTYYCQQYSKLPRTFGGGTKLEIK",–,2.6,2.6 nM and 2.7 nM
